We go through 16 sequences from the DeepSol protein solubility set.

The nature of the series: soluble on expression in E. coli; label from the status in PepcDB or PDB records.
Regarding “METFDVVVIGAGAAGMMCAIEAGKRGRSVLVIDHAKAPGEKIRISGGGRCNFTNTGASIHNFLSANPKFALSALRRYRPRDFIALVERYGIAYHEKTLGQLFCDGSAKQIITMLLTEMKAAGVTLRLETSVESVAKAVSGFEVSLSSGKVACASLVVASGGKSIPKMGATGLGYDIAKQFGLNIIETRPALVPLTFEAGMLARLTPLSGVALDAVVGHGKTKFQEGMLFTHRGLSGPSILQISSYWREGDEIRVDMAPGVDALAALKTARTATPRQAVATVLATLLPKRVAQVIAEEEAPDKGNIADCSDKVLGRLASAVNAWTFKPVGSEGYRTAEVTLGGVDTEALDSRTLEAKAVPGLFFIGEVVDVTGWLGGYNFQWAWASGWSAGQSV”, the “soluble on expression in E. coli” value was “soluble”. Take “METFKDRLVFLWKSEARQAKIASDIEMTIAGFSRIWNEGGLPKSETLKKIKQLKGCSIDWLLTGEGNPFPDEAPKKSLAYDTLGNEVDTDEFVFVPRYDIRAAAGYGQFVDHEEPVFTMAFRRHWIENYVTRDTKNLSVISVKGDSMEGVLNDGDSILVNHGENTPRDGLYVLRINENLLVKRLQIVPGGIINVISANEAYPAFEINLNDLTDDVEIIGRVEWFGRTI”: the “soluble on expression in E. coli” value is given as “not soluble”. For the sequence “METGGGAPLTKSSEAVEGDFVEDRLRGNEAFRRGNYEAAASYYSEALEKIRLAKTELPTQDRYPWSLEEVLIRCNRALVFLRLASAAALPNVGSNRFEEDACTAEHESEEATPCSLWQRAAEDASVALDLITDFEDEGESERVTELRVKALYRRMVANKGQNNFADAAKDAEALAKIRPEYRSEAELLAQRAAAESERAKQEALQKLKEVGNSFLSLFGVSIDNFQTKRNPDGTYSVSYCPKS”, the “soluble on expression in E. coli” value is “not soluble”. To “METIVQKFGGTSVGSVERIQHVANLIIEEYERGHSIVSVVSAMGKSTDELVALANAITENPSKREMDMLLSTGEQVTISLLTMALQAKGYHAISLTGWQAGITTESVHSSARITDIHTDRIQSYLAEGTIVIVAGFQGVSEDFEITTLGRGGSDTTAVALAAALKAKKCDIYTDVTGVYTTDPRVVKDAYKLDEISYDEMLELANLGAGVLHPRAVEFAKNHNVVLEVRSSMEQENGTIVKGECNMEQQSIVKGIAFEDNITRVTIKGLEQGSLSTVFSTLAAAHINVDIIIQSITNEGTVHLSFSIHSNDLRETLEVLEQNQEALHYEAVEYENHLAKVSIVGSGMVSNPGVAANMFTTLKEEDIHIKMVSTSEIKVSVVIDRLHLVTGVEALHQSFMAKIEPFVQMS” belongs “not soluble”; to “METKDLIVIGGGINGAGIAADAAGRGLSVLMLEAQDLACATSSASSKLIHGGLRYLEHYEFRLVSEALAEREVLLKMAPHIAFPMRFRLPHRPHLRPAWMIRIGLFMYDHLGKRTSLPGSTGVRFGADSVLKPEIVRGFEYSDCWVDDARLVLANAQMVVRKGGEVLTRTRATAARRENGLWIVEAEDIDTGKKYVWQARGLVNATGPWVKQFFDEGMHLPSPYGIRLIKGSHIVVPRVHNQKQAYILQNEDKRIVFVIPWMEEFSIIGTTDVEYKGDPKAVKIEESEINYLLKVYNAHFQKQLGRDDIVWTYSGVRPLCDDESDSPQAITRDYTLDIHDENGKAPLLSVFGGKLTTYRKLAEHAMEKLASYYPGIGPAWTKTCVLPGGDIDGSREDYAAKLRRRYPFLTESLARHYSRTYGSNTEWILGEATSLLDLGEDFGHEFYEAELKYLVDHEWVRRTEDAIWRRTKEGMWLTAEQQSRITQWLAAYVEKHQLSMASLEHHHHHH”, “soluble”. To “METKKTLREGYTTGSCATVATKAALTALITGQVQAEATIRLPIGRVVTFSLASCSFDGETATASVVKDGGDDPDATHGALIVSTVSWTSSPGVHIDGGEGVGRVTKPGLPVPVGEAAINPVPRQMIREAVNEVLAQYGLHRGVKVVISVPGGEEIAKKTLNPRLGIIGGISILGTRGIVVPFSTAAYRASIVQALQVAKANGCRHVVITTGGRSEKYAMQEYPHLPEEAFIEMGDFVGFTLKQCKRLGIKMVSMVGMMGKFSKVAQGVMMVHSKSAPVDFGFLAAIAEQAGACPELVAAVRGANTAAQVGDMMQEAGCTKFFELLCEACCQAALHEVGGGLTVATSIYTMNGQRLGKAVQTDGDDEVDRCRC” belongs “not soluble”.

For the sequence “METPQTGYQVKTYNVPVKRYCQTLDLRDSPELIAEYRKRHSQAEVWPEILAGIREVGILEMEIYILGTRLFMIVETPVDFDWDTAMARLNTLPRQQEWEEYMSILQQAAPGMSSAEKWIPMERMFHLYNT”, the “soluble on expression in E. coli” value is given as “not soluble”. For the sequence “METRTYAIGVEATMDVIGGKWKPIILCNLRHGAMRPSDLKRGITGISQKMLTQQLRELEEDNIIERKVYNQVPPKVEYYLSDYGQSLSAVLDNLCNWGESHVAHLQEQGQEIYLKCED”, the “soluble on expression in E. coli” value is given as “not soluble”. To “MEVAVEKAVAAAAAASAAASGGPSAAPSGENEAESRQGPDSERGGEAARLNLLDTCAVCHQNIQSRAPKLLPCLHSFCQRCLPAPQRYLMLPAPMLGSAETPPPVPAPGSPVSGSSPFATQVGVIRCPVCSQECAERHIIDNFFVKDTTEVPSSTVEKSNQVCTSCEDNAEANGFCVECVEWLCKTCIRAHQRVKFTKDHTVRQKEEVSPEAVGVTSQRPVFCPFHKKEQLKLYCETCDKLTCRDCQLLEHKEHRYQFIEEAFQNQKVIIDTLITKLMEKTKYIKFTGNQIQNRIIEVNQNQKQVEQDIKVAIFTLMVEINKKGKALLHQLESLAKDHRMKLMQQQQEVAGLSKQLEHVMHFSKWAVSSGSSTALLYSKRLITYRLRHLLRARCDASPVTNNTIQFHCDPSFWAQNIINLGSLVIEDKESQPQMPKQNPVVEQNSQPPSGLSSNQLSKFPTQISLAQLRLQHMQQQVMAQRQQVQRRPAPVGLPNPRMQGPIQQPSISHQQPPPRLINFQNHSPKPNGPVLPPHPQQLRYPPNQNIPRQAIKPNPLQMAFLAQQAIKQWQISSGQGTPSTTNSTSSTPSSPTITSAAGYDGKAFGSPMIDLSSPVGGSYNLPSLPDIDCSSTIMLDNIVRKDTNIDHGQPRPPSNRTVQSPNSSVPSPGLAGPVTMTSVHPPIRSPSASSVGSRGSSGSSSKPAGADSTHKVPVVMLEPIRIKQENSGPPENYDFPVVIVKQESDEESRPQNANYPRSILTSLLLNSSQSSTSEETVLRSDAPDSTGDQPGLHQDNSSNGKSEWLDPSQKSPLHVGETRKEDDPNEDWCAVCQNGGELLCCEKCPKVFHLSCHVPTLTNFPSGEWICTFCRDLSKPEVEYDCDAPSHNSEKKKTEGLVKLTPIDKRKCERLLLFLYCHEMSLAFQDPVPLTVPDYYKIIKNPMDLSTIKKRLQEDYSMYSKPEDFVADFRLIFQNCAEFNEPDSEVANAGIKLENYFEELLKNLYPEKRFPKPEFRNESEDNKFSDDSDDDFVQPRKKRLKSIEERQLLK” belongs “soluble”; to “MEVEYMNFNELNLSDNILNAIRNKGFEKPTDIQMKVIPLFLNDEYNIVAQARTGSGKTASFAIPLIELVNENNGIEAIILTPTRELAIQVADEIESLKGNKNLKIAKIYGGKAIYPQIKALKNANIVVGTPGRILDHINRGTLNLKNVKYFILDEADEMLNMGFIKDVEKILNACNKDKRILLFSATMPREILNLAKKYMGDYSFIKAKINANIEQSYVEVNENERFEALCRLLKNKEFYGLVFCKTKRDTKELASMLRDIGFKAGAIHGDLSQSQREKVIRLFKQKKIRILIATDVMSRGIDVNDLNCVINYHLPQNPESYMHRIGRTGRAGKKGKAISIINRREYKKLRYIERAMKLKIKKLKFG”, “soluble”; to “MEVFVFTPKGDLYKMPKGATVLDFAFAIHSKLGSKCIGAKVNGKNAQLKQTLNSGLEHHHHHH”, “not soluble”. “MEVKELERDKNRVVLEYVFGAEEIAQAEDKAVRYLNQRVEIPGFRKGRIPKNVLKMKLGEEFQEYTLDFLMDLIPDTLKDRKLILSPIVTERELKDVTARVVVEVHEEPEVRIGDISKIEVEKVDEEKVLEKYVERRIEDLRESHALLEPKEGPAEAGDLVRVNMEVYNEEGKKLTSREYEYVISEDEDRPFVKDLVGKKKGDVVEIEREYEGKKYTYKLEVEEVYKRTLPEIGDELAKSVNNEFETLEQLKESLKKEGKEIYDVEMKESMREQLLEKLPEIVEIEISDRTLEILVNEAINRLKREGRYEQIVSSYESEEKFREELKERILDDIKRDRVIEVLAQEKGISVNDEELEKEAEELAPFWGISPDRAKSLVKARQDLREELRWAILKRKVLDLLLQEVKVKVVEPKGEGDDSEGKEDNLEHHHHHH”: the “soluble on expression in E. coli” value was “soluble”. “MEVPKNPYESTWTGYDFYYEKEPKKVPPSAGSGKMPAFQSIASISTDRESPEDPGNSGYLASGAESGPKKTTSKPATTPTPEPTTTPVEEEKVKVSPSSSTKDPSKLHKTTKTPVTITNIISTTTAPPAPSRAPENDPESGSDQSESTDNLDLLYGGGSSATATGEDKKARHSTTNNPNFCTDPPKLHDPPPPHPSAPQNLLTQLIQKKKDAPNKGSSEKSSKWSDDHASGYPEGSAPSAEPSENQYEQDGSIPSSNDYKELTDVPGTKPSSSASRGSNMAGNPTAPLTTTQHTFAPNSTETSRSSTSRGKAPGTEPKSEARYSSQNPYSDNSSTQKPEYESGYPAVSGANSRAQIPNITDYTKPSAVSIEYASSSKERSDPPFSTPLTSNSQHVLTQPRPRDYEDGPQETTRTKASGTKSPNSLQAPQQTAAHLMKNARAPGPEPSLHSTTTHHVQTPIITIAPKFSEPSPYAENIMLTPKQAPGTEPRSNSQNPQTDRLASQSGYESGGPGRPQNVSIRHRENPKGSDAISRTAITPSKIDYFAPSSPTGPIGYERQVPSFKEGPDHQYTKYSTLNSPPAPSPQESSTITHHVSTSPDFLEPSSESSVLLPKQAPGTNPSTSNSPPGYSELIGPSGPESQGYEPMGNNGPSIFEGPGTESGYSEPKALSTASQKTKPDDKPYEIPRSIEPSNSKPYPSDSSWSDHDNAPGSEPSYIPDVLDYGARANNHAGKMMNMSHATSPSTGSPSNSNNAISARDPYDHFGTITAPSDIPRANSNFEEYPDDGGYDGTNDVAIVPLRTQHGTNPSTITTTNTQVRAQISEIDRIAESFENSAREPVEYEQRITSESSKGITAVTGKDFMKKLGRKSPTCCSCCDEKQSVSRNIETQADPLHVQHAVDPSRQLVESEPVQNFVPLQNTVGGNAYIQPQPVAQQQTIYQQPFQQYQPQYPQSYQQPSCGCQPQPQNCCAPPAPCCLPTIPCCPPIPCCPQPKICCQPAPVCLPPPTCCSINFKLPTIPICGRACPSCPCRRRMHKSRRLKRHSINSNCHQCSSAGEPWRSVLHHREKRAAPGCTSGFSTMSQNSCGTCGASNLRSPRVKRMGCLPCLGRKKRDTDENSHIRVKRMGCLPCLGRKKRSTLSQSGCSQCNSMGHLFNRYKRSLFGGCSPCAPQQPCGCGRKKRSVTMKLVKRAPMQCDSTCCDFSRCPYRQKKEALVPFM”: the “soluble on expression in E. coli” value was “not soluble”.

As to “MEVTNGLNLKDTELRLGLPGAQEEQQLELSCVRSNNKRKNNDSTEESAPPPAKTQIVGWPPVRSNRKNNNNKNVSYVKVSMDGAPYLRKIDLKMYKNYPELLKALENMFKFTVGEYSEREGYKGSGFVPTYEDKDGDWMLVGDVPWDMFSSSCQKLRIMKGSEAPTAL”, the “soluble on expression in E. coli” value is given as “not soluble”. Consider “MEWGVRFYVLSKQEWKQQTIDRCGQFYCLVPSNAGFHVYLFVTMDTGENAVFVFPPHFFIRYRERYWGKHSTLSGKILRKTYLKDNLVMRYGLQPGSEERVTGARIYSASSHGVALGIVLNDEAYLFKTFITYAMTKGEQIPLYMQEKLSMERAQVEYYNTGRLADLVELEERDRKRREMLMAEERRREEKEKRRAAEPGEAYFYVEGPLTLIMPDEEIQEENTGFWQRGTTMFCDSKLIEESQREMRELASVEARIQELKNIPQKAEEKKGVFKRLFGRYF”, for which the “soluble on expression in E. coli” value is on record as “not soluble”. To “MEYKSPVYGIIAVPIEKIESNDYNPNAVAPPEMQLLYKSIKEDGYTMPIVCYYNEEKDKYIIVDGFHRYRVMLENEDIYDRENGLLPVSVIDKSLDERMASTIRHNRARGSHNVDLMSKIITELCEIGKSDEWISKHLGMEVDEILRLKQITGLAYLFKDKEFGNAWIPFGSDIEEEN” belongs “not soluble”.
